# Measured values as given in publication PMC5462531.
# Columns and labels:
# [1] = biological target: SBC, trimeric complex of SOCS2, Elongin B and Elongin C (wild type) (UniProt O14508); experiment: ITC; Cul5NTD titrated into VBC or SBC proteins (Figure 7D: 200 μM into 20 μM, 303 K); 100 mM Bis tris propane pH 8.0, 50 mM NaCl, 2 mM TCEP; one-set-of-sites model
# [2] = biological target: S^KSDBC, SBC with the SOCS2 triple mutation Q164K, R186S, Y190D (UniProt O14508); experiment: as above
# [3] = biological target: V^QRYBC, VBC with the pVHL triple mutation K159Q, S183R, D187Y (human) (UniProt P40337); experiment: as above
# [4] = biological target: Rbx1-Cul2, dimeric complex of full-length Rbx1 and full-length Cullin-2 (wild type) (human) (UniProt Q13617); experiment: ITC; VBC or SBC proteins (200 μM) titrated into Rbx1-Cul2 (20 μM), 303 K; 100 mM Bis tris propane pH 8.0, 50 mM NaCl, 2 mM TCEP; one-set-of-sites model
# Sequence of Rbx1-Cul2, dimeric complex of full-length Rbx1 and full-length Cullin-2 (wild type) (human) (Q13617 whole entry, chain 1 of 2): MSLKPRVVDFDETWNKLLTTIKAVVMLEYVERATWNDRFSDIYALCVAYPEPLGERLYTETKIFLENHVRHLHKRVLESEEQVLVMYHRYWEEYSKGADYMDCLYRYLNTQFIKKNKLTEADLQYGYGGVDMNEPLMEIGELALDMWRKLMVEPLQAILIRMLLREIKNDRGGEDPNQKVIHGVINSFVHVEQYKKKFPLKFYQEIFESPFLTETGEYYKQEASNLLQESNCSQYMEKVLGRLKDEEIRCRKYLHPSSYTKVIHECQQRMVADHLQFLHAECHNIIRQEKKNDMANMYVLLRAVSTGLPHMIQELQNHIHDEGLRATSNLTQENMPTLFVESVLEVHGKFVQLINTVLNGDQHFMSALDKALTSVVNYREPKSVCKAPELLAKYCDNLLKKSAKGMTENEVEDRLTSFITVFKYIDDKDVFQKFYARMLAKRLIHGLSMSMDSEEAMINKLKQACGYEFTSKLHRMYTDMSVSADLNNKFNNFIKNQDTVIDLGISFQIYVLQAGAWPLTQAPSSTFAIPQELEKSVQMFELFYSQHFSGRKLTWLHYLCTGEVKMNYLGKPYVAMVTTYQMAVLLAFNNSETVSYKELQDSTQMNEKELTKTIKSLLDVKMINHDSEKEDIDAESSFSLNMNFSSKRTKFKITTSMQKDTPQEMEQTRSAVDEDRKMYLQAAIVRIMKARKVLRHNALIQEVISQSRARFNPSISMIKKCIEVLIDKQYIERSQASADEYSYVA
# Sequence of Rbx1-Cul2, dimeric complex of full-length Rbx1 and full-length Cullin-2 (wild type) (human) (P62877 whole entry, chain 2 of 2, further chain): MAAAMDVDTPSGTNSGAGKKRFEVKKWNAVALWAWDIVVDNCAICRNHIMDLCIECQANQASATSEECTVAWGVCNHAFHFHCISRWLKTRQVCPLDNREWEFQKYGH
# Sequence of Cul5NTD, N-terminal domain of Cullin-5 (residues 1-386) (Q93034 1-386): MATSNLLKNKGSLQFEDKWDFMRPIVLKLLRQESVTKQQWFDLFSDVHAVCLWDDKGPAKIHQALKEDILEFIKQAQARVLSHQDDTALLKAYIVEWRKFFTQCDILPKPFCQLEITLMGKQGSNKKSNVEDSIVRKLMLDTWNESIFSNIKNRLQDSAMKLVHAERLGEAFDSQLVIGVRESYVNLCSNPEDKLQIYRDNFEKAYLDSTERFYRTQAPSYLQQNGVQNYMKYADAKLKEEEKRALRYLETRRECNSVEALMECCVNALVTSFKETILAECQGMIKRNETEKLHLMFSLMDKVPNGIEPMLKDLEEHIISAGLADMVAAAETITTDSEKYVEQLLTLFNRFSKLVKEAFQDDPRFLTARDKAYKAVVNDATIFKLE
Kd [1],Kd [2],Kd [3],Kd [4],Substance
10 nM,250 nM,2900 nM,–,"Cul5NTD, N-terminal domain of Cullin-5 (residues 1-386) (from UniProt Q93034 1-386) (domain or fragment)"
–,–,–,2500 nM,"S^KSDBC, SBC with the SOCS2 triple mutation Q164K, R186S, Y190D (from UniProt O14508 32-198; Q15370 1-104; Q15369 17-112) (complex; other documents disagree on this pair)"
